Results reported in PMC3742261, “Integrated Self-Assembly of the Mms6 Magnetosome Protein to Form an Iron-Responsive Structure” (International Journal of Molecular Sciences, 2013).
Where “and” joins values, the source holds several entries; their conditions need not be identical. Equal values may be shown once.

Legend:
[1] = target: Mms6 (wild type, mature form, His-tagged) (Magnetospirillum magneticum strain AMB-1) (UniProt Q2W8R5); test: SEC; Superose 12 column, protein loaded at 0.2 mg/mL, BC100 buffer (20 mM Tris, 100 mM KCl, pH 7.5), 4 °C; percent of total protein in the void volume by peak integration
[2] = target: Mms6 I117G (Magnetospirillum magneticum strain AMB-1) (UniProt Q2W8R5); test: as above
[3] = target: Mms6 L84A, L86A, L88A, L90A, L92A (GL repeat replaced with a GA repeat) (Magnetospirillum magneticum strain AMB-1) (UniProt Q2W8R5); test: SEC; Superose 12 column, protein loaded at 1 mg/mL, 4 °C; percent of total protein in the void volume by peak integration
[4] = target: Mms6 L84A, L86A, L88A, L90A, L92A (GL repeat replaced with a GA repeat) (Magnetospirillum magneticum strain AMB-1) (UniProt Q2W8R5); test: SEC; Superose 12 column, protein loaded at 0.2 mg/mL, BC100 buffer (20 mM Tris, 100 mM KCl, pH 7.5), 4 °C; percent of total protein in the void volume by peak integration
[5] = target: Mms6 L128G (Magnetospirillum magneticum strain AMB-1) (UniProt Q2W8R5); test: as above
[6] = target: Mms6 L132G (Magnetospirillum magneticum strain AMB-1) (UniProt Q2W8R5); test: as above
[7] = target: Mms6 W79A (Magnetospirillum magneticum strain AMB-1) (UniProt Q2W8R5); test: as above
[8] = target: Mms6 W79F (Magnetospirillum magneticum strain AMB-1) (UniProt Q2W8R5); test: as above
[9] = target: Mms6 W79F,W95F (Magnetospirillum magneticum strain AMB-1) (UniProt Q2W8R5); test: as above
[10] = target: Mms6 W95A (Magnetospirillum magneticum strain AMB-1) (UniProt Q2W8R5); test: as above
[11] = target: Mms6 W95F (Magnetospirillum magneticum strain AMB-1) (UniProt Q2W8R5); test: as above
[12] = target: the molecule itself; test: SEC; Superdex Peptide 10/300 column, 80 micrograms C21Mms6, 20 mM Tris, pH 7.5; size from a standard curve
[13] = target: the molecule itself; test: SEC; Superdex Peptide 10/300 column, 80 micrograms C21Mms6, 10 mM Pi, pH 7.5; size from a standard curve
[14] = target: the molecule itself; test: SEC; Superdex Peptide 10/300 column, 80 micrograms C21Mms6, 10 mM Pi, 100 mM KCl, pH 7.5; size from a standard curve
[15] = target: the molecule itself; test: SEC; Superdex Peptide 10/300 column, 80 micrograms C21Mms6, 50 mM Formate or Citrate, pH 3 with FeCl3:protein = 8:1; size from a standard curve
[16] = target: the molecule itself; test: SEC; Superdex Peptide 10/300 column, 80 micrograms C21Mms6, 20 mM Tris, 1.5 or 3 M KCl, pH 7.5; size from a standard curve
[17] = target: the molecule itself; test: SEC; Superdex Peptide 10/300 column, 80 micrograms C21Mms6, 20 mM Tris, 100 mM KCl, pH 7.5; size from a standard curve
[18] = target: the molecule itself; test: SEC; Superdex Peptide 10/300 column, 80 micrograms C21Mms6, 50 mM Formate or Citrate, pH 3; size from a standard curve

Mms6 (wild type, mature form, His-tagged) (from UniProt Q2W8R5 1-133) (natural protein)
% protein in Vo [1]: 100%

Mms6 I117G (from UniProt Q2W8R5 1-133) (natural protein)
% protein in Vo [2]: 94% and 95%

Mms6 L84A, L86A, L88A, L90A, L92A (GL repeat replaced with a GA repeat) (from UniProt Q2W8R5 1-133) (natural protein)
% protein in Vo [3]: 55%
% protein in Vo [4]: 46% and 54%

Mms6 L128G (from UniProt Q2W8R5 1-133) (natural protein)
% protein in Vo [5]: 63% and 86%

Mms6 L132G (from UniProt Q2W8R5 1-133) (natural protein)
% protein in Vo [6]: 29% and 37%

Mms6 W79A (from UniProt Q2W8R5 1-133) (natural protein)
% protein in Vo [7]: 79% and 83%

Mms6 W79F (from UniProt Q2W8R5 1-133) (natural protein)
% protein in Vo [8]: 96%

Mms6 W79F,W95F (from UniProt Q2W8R5 1-133) (natural protein)
% protein in Vo [9]: 75% and 82%

Mms6 W95A (from UniProt Q2W8R5 1-133) (natural protein)
% protein in Vo [10]: 49% and 70%

Mms6 W95F (from UniProt Q2W8R5 1-133) (natural protein)
% protein in Vo [11]: 97%

B1: C21Mms6 (synthetic peptide of the C-terminal 21 amino acids of Mms6) (peptide, UniProt Q2W8R5 113-133, looked up)
peptide: KSRDIESAQSDEEVELRDALA
notes: Mms6, Magnetospirillum magneticum AMB-1, C-terminal 21 amino acids; also called synthetic 21 amino acid peptide C-terminal domain; source: synthetic peptide, ordered from GenScript
stoichiometry N [12]: 2 C21Mms6 units/multimer
stoichiometry N [13]: 7.3 C21Mms6 units/multimer
stoichiometry N [14]: 4 C21Mms6 units/multimer
stoichiometry N [15]: 2.1 C21Mms6 units/multimer
stoichiometry N [16]: 1.8 C21Mms6 units/multimer
stoichiometry N [17]: 4.1 C21Mms6 units/multimer
stoichiometry N [18]: 2 C21Mms6 units/multimer
